Article doi:10.64898/2025.12.11.693645 (bioRxiv, 2025)

Target: the molecule itself
Assay: crystal structure

B1: full length HtpG from M. tuberculosis (HtpGMtb) (enzyme)
chain: MNAHVEQLEFQAEARQLLDLMVHSVYSNKDAFLRELISNASDALDKLRIEALRNKDLEVDTSDLHIEIDADKAARTLTVRDNGIGMAREEVVDLIGTLAKSGTAELRAQLREAKNAAASEELIGQFGIGFYSSFMVADKVQLLTRKAGESAATRWESSGEGTYTIESVEDAPQGTSVTLHLKPEDAEDDLHDYTSEWKIRNLVKKYSDFIAWPIRMDVERRTPASQEEGGEGGEETVTIETETLNSMKALWARPKEEVSEQEYKEFYKHVAHAWDDPLEIIAMKAEGTFEYQALLFIPSHAPFDLFDRDAHVGIQLYVKRVFIMGDCDQLMPEYLRFVKGVVDAQDMSLNVSREILQQDRQIKAIRRRLTKKVLSTIKDVQSSRPEDYRTFWTQFGRVLKEGLLSDIDNRETLLGISSFVSTYSEEEPTTLAEYVERMKDGQQQIFYATGETRQQLLKSPHLEAFKAKGYEVLLLTDPVDEVWVGMVPEFDGKPLQSVAKGEVDLSSEEDTSEAEREERQKEFADLLTWLQETLSDHVKEVRLSTRLTESPACLITDAFGMTPALARIYRASGQEVPVGKRILELNPSHPLVTGLRQAHQDRADDAEKSLAETAELLYGTALLAEGGALEDPARFAELLAERLARTL
B1: binds.
